B1: TSN (parent)
chain: AFVVYLETETLVTREAVTEILGIE

Variants of: B1
Test: protein stability index of a GFP-peptide fusion (GPS, HEK-293T) (PSI 1-6); higher = more stable
Conditions: c terminus: a fixed tail appended
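Also: lentivirally expressed fusions sorted by FACS into six bins by GFP to DsRed ratio, PSI derived from sequencing read proportions per bin multiplied by bin number.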

Variant | protein stability index
ANVVYLETETLVTREAVTEILGIE [F2N] | 2.45
APVVYLETETLVTREAVTEILGIE [F2P] | 3.41
AQVVYLETETLVTREAVTEILGIE [F2Q] | 1.86
ARVVYLETETLVTREAVTEILGIE [F2R] | 1.72
ASVVYLETETLVTREAVTEILGIE [F2S] | 2.36
ATVVYLETETLVTREAVTEILGIE [F2T] | 2.74
AVVVYLETETLVTREAVTEILGIE [F2V] | 1
AWVVYLETETLVTREAVTEILGIE [F2W] | 1.84
AYVVYLETETLVTREAVTEILGIE [F2Y] | 2.83
AFAVYLETETLVTREAVTEILGIE [V3A] | 2.32
AFDVYLETETLVTREAVTEILGIE [V3D] | 2.37
AFEVYLETETLVTREAVTEILGIE [V3E] | 1.9
AFFVYLETETLVTREAVTEILGIE [V3F] | 1.99
AFGVYLETETLVTREAVTEILGIE [V3G] | 1.67
AFHVYLETETLVTREAVTEILGIE [V3H] | 2.3
AFKVYLETETLVTREAVTEILGIE [V3K] | 1.81
AFLVYLETETLVTREAVTEILGIE [V3L] | 2.35
AFMVYLETETLVTREAVTEILGIE [V3M] | 1.97
AFNVYLETETLVTREAVTEILGIE [V3N] | 2.37
AFPVYLETETLVTREAVTEILGIE [V3P] | 2.89
AFQVYLETETLVTREAVTEILGIE [V3Q] | 2.75
AFRVYLETETLVTREAVTEILGIE [V3R] | 1.34
AFSVYLETETLVTREAVTEILGIE [V3S] | 1.15
AFTVYLETETLVTREAVTEILGIE [V3T] | 3.95

Variant | protein stability index
AFYVYLETETLVTREAVTEILGIE [V3Y] | 2.86
AFVAYLETETLVTREAVTEILGIE [V4A] | 2.54
AFVCYLETETLVTREAVTEILGIE [V4C] | 2.2
AFVDYLETETLVTREAVTEILGIE [V4D] | 2.41
AFVEYLETETLVTREAVTEILGIE [V4E] | 2.07
AFVGYLETETLVTREAVTEILGIE [V4G] | 2.53
AFVHYLETETLVTREAVTEILGIE [V4H] | 2.19
AFVKYLETETLVTREAVTEILGIE [V4K] | 1.56
AFVLYLETETLVTREAVTEILGIE [V4L] | 2.21
AFVNYLETETLVTREAVTEILGIE [V4N] | 2.09
AFVPYLETETLVTREAVTEILGIE [V4P] | 2.66
AFVQYLETETLVTREAVTEILGIE [V4Q] | 1.36
AFVRYLETETLVTREAVTEILGIE [V4R] | 1.45
AFVSYLETETLVTREAVTEILGIE [V4S] | 1.57
AFVTYLETETLVTREAVTEILGIE [V4T] | 1.13
AFVWYLETETLVTREAVTEILGIE [V4W] | 2.92
AFVYYLETETLVTREAVTEILGIE [V4Y] | 2.61
AFVVALETETLVTREAVTEILGIE [Y5A] | 2
AFVVCLETETLVTREAVTEILGIE [Y5C] | 2.94
AFVVDLETETLVTREAVTEILGIE [Y5D] | 2.68
AFVVELETETLVTREAVTEILGIE [Y5E] | 2.73
AFVVFLETETLVTREAVTEILGIE [Y5F] | 1.99
AFVVGLETETLVTREAVTEILGIE [Y5G] | 2.5
AFVVHLETETLVTREAVTEILGIE [Y5H] | 1.59

Variant | protein stability index
AFVVILETETLVTREAVTEILGIE [Y5I] | 4.04
AFVVKLETETLVTREAVTEILGIE [Y5K] | 1.14
AFVVLLETETLVTREAVTEILGIE [Y5L] | 2.45
AFVVNLETETLVTREAVTEILGIE [Y5N] | 2.13
AFVVPLETETLVTREAVTEILGIE [Y5P] | 2.87
AFVVQLETETLVTREAVTEILGIE [Y5Q] | 1.91
AFVVRLETETLVTREAVTEILGIE [Y5R] | 2.97
AFVVSLETETLVTREAVTEILGIE [Y5S] | 1.77
AFVVTLETETLVTREAVTEILGIE [Y5T] | 3.32
AFVVVLETETLVTREAVTEILGIE [Y5V] | 3.44
AFVVYAETETLVTREAVTEILGIE [L6A] | 1.34
AFVVYCETETLVTREAVTEILGIE [L6C] | 2.38
AFVVYDETETLVTREAVTEILGIE [L6D] | 2
AFVVYEETETLVTREAVTEILGIE [L6E] | 2.25
AFVVYFETETLVTREAVTEILGIE [L6F] | 3.12
AFVVYGETETLVTREAVTEILGIE [L6G] | 1.77
AFVVYHETETLVTREAVTEILGIE [L6H] | 1.37
AFVVYIETETLVTREAVTEILGIE [L6I] | 3.08
AFVVYKETETLVTREAVTEILGIE [L6K] | 2.03
AFVVYNETETLVTREAVTEILGIE [L6N] | 2.69
AFVVYPETETLVTREAVTEILGIE [L6P] | 1.85
AFVVYQETETLVTREAVTEILGIE [L6Q] | 1.84
AFVVYRETETLVTREAVTEILGIE [L6R] | 1.24
AFVVYSETETLVTREAVTEILGIE [L6S] | 1.83

Variant | protein stability index
AFVVYTETETLVTREAVTEILGIE [L6T] | 2.05
AFVVYVETETLVTREAVTEILGIE [L6V] | 4.67
AFVVYYETETLVTREAVTEILGIE [L6Y] | 2.2
AFVVYLATETLVTREAVTEILGIE [E7A] | 3.23
AFVVYLCTETLVTREAVTEILGIE [E7C] | 1.79
AFVVYLDTETLVTREAVTEILGIE [E7D] | 3.68
AFVVYLGTETLVTREAVTEILGIE [E7G] | 2.77
AFVVYLHTETLVTREAVTEILGIE [E7H] | 3.41
AFVVYLITETLVTREAVTEILGIE [E7I] | 3.57
AFVVYLKTETLVTREAVTEILGIE [E7K] | 2.63
AFVVYLLTETLVTREAVTEILGIE [E7L] | 2.42
AFVVYLNTETLVTREAVTEILGIE [E7N] | 3.66
AFVVYLPTETLVTREAVTEILGIE [E7P] | 2.19
AFVVYLQTETLVTREAVTEILGIE [E7Q] | 3.51
AFVVYLSTETLVTREAVTEILGIE [E7S] | 1.76
AFVVYLTTETLVTREAVTEILGIE [E7T] | 2.4
AFVVYLWTETLVTREAVTEILGIE [E7W] | 3.69
AFVVYLYTETLVTREAVTEILGIE [E7Y] | 2.77
AFVVYLEAETLVTREAVTEILGIE [T8A] | 2.27
AFVVYLECETLVTREAVTEILGIE [T8C] | 2.57
AFVVYLEDETLVTREAVTEILGIE [T8D] | 1.94
AFVVYLEEETLVTREAVTEILGIE [T8E] | 1.4
